In this experiment the target is actin filaments in growth cones of cultured hippocampal neurons (mouse (endogenous in cultured hippocampal neurons)). Put plainly: FRET or BRET; acceptor photobleaching FRET in growth cones of fixed 2 DIV hippocampal neurons; donor GFP or GFP-tagged construct, acceptor TRITC-phalloidin on actin filaments. On the technique in general: In BRET a luciferase serves as donor, and the signal depends on an acceptor being close.

For “MAP6-E-GFP (rat MAP6-E fused to GFP) (from UniProt Q63560 1-614) (natural protein)”, the FRET efficiency was determined as 52%.
